Assay results taken from patent US20150351390A1, “COMPOSITIONS AND METHODS FOR AUXIN-ANALOG CONJUGATION” (PIONEER HI-BRED INTERNATIONAL, INC., priority 2012, published 2015).

B1: OsGH3-1: GH3 protein, accession Q8LQM5 (protein, listed as Oryza sativa)
chain: MPEAPTAKTAPAYGYAPGAHAEALEFIEHVTANAGQVQRRVLGEILAQNAPAEYLRRYGIPGSPDVVDAFRRLVPLVTYEGLQPDILRIANGDTSPIFSGKPISEFLTSSGTSGGERKLMPTIADEMNRRSLLYSLLMPVMSQSVSGLDKGKAMYLLFVKAESRTPGGLAARPVLTSYYRSRQFLDRPRDPYTSYTSPDEAILCVDSYQSMYAQLLCGLVHRADVLRVGAVFASGFLRAIHFLEKHWARLCHDIRTGELDPEITDRVVRDAVGRVLRADPALADAIEDECARASWEGIIRRLWPRTKYIDVIVTGTMSQYIPTLEFYGGGLPLTCTMYASSECYFGLNLNPMCKPSDVAYTLIPTMCYYEFLPVNCNNATAEASHRDLVDLVDVKLGHEYELVVTTYSGLYRYRVGDVLRVAGFKNKAPMFSFVRRQNVALSVDSDKTDETELHAAVSGAVQHLAPFGASLVEYTSYADAATIPGHYVLFWELRAGSTAVPASVFEECCLSVEEALNSVYRQGRACDRSIGPLEIRVVAEGTFDKLMDYAISRGASINQYKAPRCVRPGPVVELLDARVQGKYFSPKCPKWSPGNKQWNKSKDLVGKGDA
B2: OsGH3-2: GH3 protein, accession BAF06259 (protein, listed as Oryza sativa)
chain: MAPAAVAAAEAGSKAAAVAGKAVAACERDAEKLEFIEEMTRGFDAVQERVLAAILARNNGAEYLRRHGMEGRTDREAFKARVPVVTYEDLRPEIERIANGDRSNIISSHPITEFLTSSGTSAGERKLMPTIEDELDRRQMLYSLLMPVMNLYVPGLDKGKGLYFLFIKSETKTPGGLPARPVLTSYYKSDHFKHRPFDPYNVYTSPTAAILCTDAFQSMYAQMLCGLVARAEVLRVGAVFASGLLRAIRFLQLHWRELAHDIRTGTLSAKVTEPSIRDAVAEVLAAPDAELAAFVEAECGKDKWEGIITRMWPNTKYLDVIVTGAMAQYIPTLKFYSGGLPMACTMYASSECYFGLNLRPMCDPSEVSYTIMPNMGYFELMPHDPDAPPLPRDAPPPRLVDLADAEVGREYELVITTYAGLCRYRVGDILQVTGFHNAAPQFRFVRRKNVLLSIDSDKTDEAELQAAVERASALLSPYGASIVEYTSQADATTIPGHYVVYWELMVREGGAWPPPAEEEGRGVFERCCLEMEEALNAVYRQGRNGEAIGPLEIRVVRAGTFEEVMDYAISRGASINQYKAPRCVSFGPIIELLNSRVISKHFSPACPKYSPHKK
B3: OsGH3-4: GH3 protein, accession AAU90225 (protein, listed as Oryza sativa)
chain: MPEAVAAAVSPAAAAATAMCAEHREKLEHIERVTRNAGQEQRRVLEEILAQNAQAEYLRRLGVPGDAPGADEAFRRLAPLVTYEDILPDVLRIANGDTSPILSGKPVSEFLTSSGTSGGERKLMPTIEEEMERRSGLYSLLMPVMSRQVPGLDKGKAMYLYFVKSEWRTPGGLPARPVLTSFYRSRYFLERPHDPYTVYTSPDEAVLCEDAYQSMYAQLICGLVHRADVLRVGAVFASGFLRAIRFLEKHWPSLCRDIRAGELDGGVTDPAVRGAVGRVLRGADPALADAIEAECARPSWQGIIRRVWPSTKYIDVIVTGAMAQYIPTLEFYGGGLPLACTMYASSECYFGLNLNPMCKPSEVAYTLIPTMCYFEFLPVNSGANDVAAPEPDHRGLVDLVDVKLGHEYELVVTTYSGLYRYRVGDVLRVAGFKNAAPMFAFVRRKNVALSIDSDKTDEAELHAAVTEAVQHLAPFGASLVEYTSYADTATTIPGHYVLFWELRSPAGGTPVPASVFEDCCLAVEEGLNSVYRQCRAADRSIGPLEIRVVADGTFDKLMDYALSRGASINQYKAPRCVRPGPVVELLDGRVQATYFSPKCPKWCAGGNKQWISSGAAAKKTTTTCDSLAV
B4: OsGH3-8: GH3 protein, accession Q0D4Z6 (protein, listed as Oryza sativa)
chain: MAVMTDVSTTGTALRTPAAGAVKEGDVEKLRFIDEMTTNVDAVQERVLGEILGRNAGTEYLTKCGLDGATDRAAFRAKVPVVSYDDLQPYIQRIANGDRSPILSTHPVSEFLTSSGTSAGERKLMPTIMDELDRRQLLYSLLMPVMNLYVPGLDKGKGLYFLFVKSETKTPGGLTARPVLTSYYKSDHFKNRPYDPYHNYTSPTAAILCADAFQSMYAQMVCGLCQRNDVLRLGAVFASGLLRAIRFLQLNWEQLADDIESGELTPRVTDPSVREAVAAILLPDPELAKLIRAECSKGDWAGIITRVWPNTKYLDVIVTGAMAQYIPTLEFYSGGLPMACTMYASSECYFGLNLRPMCDPSEVSYTIMPNMGYFEFLPVDETGAASGDATQLVDLARVEVGREYELVITTYAGLNRYRVGDVLRVTGFHNAAPQFRFVRRKNVLLSIESDKTDEAELQRAVERASALLRPHGASVVEYTSQACTKRIPGHYVIYWELLTKGAGATVVDADTLGRCCLEMEEALNTVYRQSRVADGSIGPLEIRVVRPGTFEELMDYAISRGASINQYKVPRCVTFPPIVELLDSRVVSSHFSPALPHWTPARRSE
B5: SbEER99639: GH3 protein, accession EER99639 (protein)
chain: MAVMAEVVSTTGAALRSPASQPPPPPAAAAVKDADAEKLQFIEEMTSNVDAVQERVLGEILARNADTEYLAKYGITGASDRATFRAKVPMATYEDLQPYIRRIADGDRSPILSGHPVSEFLTSSGTSAGERKLMPTIEDELNRRQLLYSLQMPVMNLYVPGMDKGKALHFLFVKSETKTPGGLAARPVLTSYYKSNHFKNRPFDAYNNYTSPTAAILCADAFQSMYAQMVCGLCQRQDVLRVGAVFASGLLRAIRFLQLNWEQLADDIESGSLTPRITDPSVREAVAGILRPDPELASLVRSECSKGDWAGIITRIWPNTKYLDVIVTGAMAQYIPTLKYYSGGLPMACTMYASSECYFGLNLRPMCDPSEVSYTLMPNMCYFEFLPMDAAASGGGDASQLVDLARVEVGREYELVITTYAGLNRYRVGDVLQVTGFHNTAPQFRFVRRKNVLLSIESDKTDEAELQRAVERASALLRPHGAAVVEYTSQAYTKSIPGHYVIYWELLTKGPAAGAGAAVDRETLDRCCLEMEEALNTVYRQSRVADGSIGPLEIRVVRPGTFEELMDYAISRGASINQYKVPRCVTFPPIIELLDSRVVSTHFSPALPHWTPGQRSHSD
modifications: Sorghum bicolor
B6: SbEES01517: GH3 protein, accession EES01517 (protein)
chain: MAPMATAAAAAAVGRVTALGVAACERDVEKLEFIEDKTKNFDAEQVRVLAEILARNNGAEYLRRHGMEGRTDRQAFKARVPVVTYEDLRPEIDRIANGDRSNIISSHPITEFLTSSGTSAGERKLMPTIEDELNRRQMLYSLLMPVMNLYVPGLDKGKGLYFLFIKSETKTPGGLPARPVLTSYYKSDHFKHRPYDPYNVYTSPTAAILCTDSFQSMYSQMLCGLVARTEVLRVGAVFASGLLRAIRFLQLHWKELAHDLRTGTLSARVVEPSIRDAVAEVLTKPDAGLADLVEAECGKDNWEGIITRVWPNTKYLDVIVTGAMAQYIPTLKYYSGGLPMACTMYASSECYFGLNLRPMCDPSEVSYTIMPNMGYFELLPHDPEDKPAVSSSSAASAMDHDRLLVDLADAEVGKEYELVITTYAGLCRYRVGDILHVTGFHNAAPQFRFVRRKNVLLSIDSDKTDEAELQSAVERASRLLAPYDARIVEYTSQADATTIPGHYVVYWELMVRDGGASPEPDVFERCCLEMEEALNAVYRQGRNGDAIGPLEIRVVRGGTFEEVMDYAISRGASINQYKAPRCVSFGPIIELLNSRVVSRHFSPACPTYSPHKK
modifications: Sorghum bicolor
B7: SbEES01578: GH3 protein, accession EES01578 (protein)
chain: MPEAPTTKTTLPAGGFGPGAHREALEFIEHVTANAGKVQRRVLAEILTQNAPAEYLRRYGVPGGSADAVEAFRRVVPLVTYEGLQPDILRIASGDTSPILSGKPISEFLTSSGTSGGERKLMPTIADELDRRSLLYSLQMPVMSQSVPGLDKGKAMYLLFVKAESRTPGGLVARPVLTSYYRSRQFLERPHDPYTEYTSPNEAILCVDSYQSMYTQLLCGLVHRADVLRVGAVFASGFLRAVRFLEKHWPRLCRDIRTGTLDPEITDRAVRDAVVGRVLRGANPALADEIEAECAGPSWEGIIRRLWPRTKYIDVIVTGAMSQYIPTLEFYGGGLPLACTMYASSECYFGLNLKPMCKPGDVAYTLIPTMCYFEFLPLQCSDGKAEPSHRDLVGLVDVKLGHEYELVVTTYSGLYRYRVGDVLRVAGFKNEAPMFKFIRRQNVALSIDSDKTDETELHAAVSGAVQHLAPFGASLVEYTSYADAATIPGHYVLFWELRAGSTAVPASVFEDCCLSVEEALNSVYRQCRACDKSIGPLEIRVVSEGTFDKLMDYAISRGASINQYKAPRCVRPGPVVELLDARVQAKYFSPKCPKWSPGNKQWNAASNGDA
modifications: Sorghum bicolor

experiment: LC-MS assay of GH3 conjugation of IAA with Asp or Glu; type: biochemical; settings: conjugation of IAA with Asp by recombinant GH3 protein; IAA-Asp product by LC-MS
Procedure, shortened: (§1)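 Amino acid conjugates of IAA, 2,4-D or dicamba measured by LC-MS against conjugate standards, with kinetic parameters fitted to Michaelis-Menten initial velocities. Reactions: 5 mM each of auxin, ATP and Asp or Glu with 44 to 164 μg/mL purified His-tagged GH3 (E. coli-expressed), pH 8.0 Tris, 5 mM MgCl2, 1 mM DTT, 30 °C for 3 h.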

Compared with B1, B2 is higher in “kcat (hrs−1) IAA-Asp” value: 633.605 h⁻¹ for the first, 664.242 h⁻¹ for the second.

Going from B3 to B4, the “kcat (hrs−1) IAA-Asp” value falls from 919.336 h⁻¹ to 578.598 h⁻¹.

First: B5
Second: B6
The “kcat (hrs−1) IAA-Asp” value of the first is lower: 651.991 h⁻¹ for the first, 855.770 h⁻¹ for the second.

In the case of B7, the “kcat (hrs−1) IAA-Asp” value is reported as 4419.692 h⁻¹.

same assay, conditions: conjugation of IAA with Glu by recombinant GH3 protein; IAA-Glu product by LC-MS

Compared with B1, B2 is higher in “kcat (hrs−1) IAA-Glu” value: 33.412 h⁻¹ for the first, 42.295 h⁻¹ for the second.

Going from B3 to B4, the “kcat (hrs−1) IAA-Glu” value rises from 17.854 h⁻¹ to 28.361 h⁻¹.

First: B5
Second: B6
The “kcat (hrs−1) IAA-Glu” value of the first is lower: 31.110 h⁻¹ for the first, 80.034 h⁻¹ for the second.

With B7 the “kcat (hrs−1) IAA-Glu” value was 162.572 h⁻¹.

experiment: LC-MS assay of GH3 conjugation of 2,4-D with Asp or Glu; type: biochemical; settings: conjugation of 2,4-D with Asp by recombinant GH3 protein; 2,4-D-Asp product by LC-MS; 5 mM 2,4-D substrate
Procedure, shortened: as §1

Going from B1 to B2, the “kcat (hrs−1) 2,4-D-Asp” value rises from 0.937 h⁻¹ to 1.548 h⁻¹.

Going from B3 to B4, the “kcat (hrs−1) 2,4-D-Asp” value rises from 2.002 h⁻¹ to 2.917 h⁻¹.

First: B5
Second: B6
The “kcat (hrs−1) 2,4-D-Asp” value of the first is higher: 2.476 h⁻¹ for the first, 0.953 h⁻¹ for the second.

With B7 the “kcat (hrs−1) 2,4-D-Asp” value was 0.765 h⁻¹.

same assay, conditions: conjugation of 2,4-D with Glu by recombinant GH3 protein; 2,4-D-Glu product by LC-MS; 5 mM 2,4-D substrate

Compared with B1, B2 is higher in “kcat (hrs−1) 2,4-D-Glu” value: 0.207 h⁻¹ for the first, 0.401 h⁻¹ for the second.

Compared with B3, B4 is higher in “kcat (hrs−1) 2,4-D-Glu” value: 0.254 h⁻¹ for the first, 0.368 h⁻¹ for the second.

Going from B5 to B6, the “kcat (hrs−1) 2,4-D-Glu” value falls from 0.457 h⁻¹ to 0.426 h⁻¹.

With B7 the “kcat (hrs−1) 2,4-D-Glu” value was 0.250 h⁻¹.
